Target: C-terminally TAMRA-conjugated and N-terminally myristoylated preS1 peptide, amino acids 2-48 of the preS1 region (preS1 probe)
Assay: preS1 binding assay (fluorescent preS1 probe attachment to cells, fluorescence imaging)
Conditions: Huh7 cells transiently expressing wild-type or mutant NTCP; parent: est. 1.0; read off a plot

Row | Substance | ratio to parent (fold vs control)
1 | wild-type NTCP transiently expressed in Huh7 cells (from UniProt Q14973) R143A; D147A | 1.1
2 | wild-type NTCP transiently expressed in Huh7 cells (from UniProt Q14973) R84A; N87A | 0.46

Reference: publication PMC9242859
